Results published in the DeepSol protein solubility set.

experiment: soluble on expression in E. coli; label from the status in PepcDB or PDB records

Sequence	soluble on expression in E. coli
SKEIDISCVKIEQVIGAGEFGEVCSGHLKLPGKREIFVAIKTLKSGYTEKQRRDFLSEASIMGQFDHPNVIHLEGVVTKSTPVMIITEFMENGSLDSFLRQNDGQFTVIQLVGMLRGIAAGMKYLADMNYVHRALAARNILVNSNLVCKVSDFGLSRFLEDDTSDPTYTSALGGKIPIRWTAPEAIQYRKFTSASDVWSYGIVMWEVMSYGERPYWDMTNQDVINAIEQDYRLPPPMDCPSALHQLMLDCWQKDRNHRPKFGQIVNTLDKMIRNPNSLKAMAPLSS	soluble
MSEPLLRGLAAGDPPSATGPVTGSADKVADVLIVGGGLVGGTLACALAEKGVSVVVIDGEDPEALLAAGYDGRCSAIALACQRLLDTIGLWDLLGGESQPILDIRVVDGGSPLFLHYAQAEAQGPMGYMVENRLLRQAILTRLGRLPAATLLAPARMTALRRDLDGVSATLSDGQTVRARLVVGADGRRSQVRESAGIGIRTLGYGQTAIVLTVEHERSHRGCAVEHFLPAGPFAILPMPGNRSSLVWTERSDLVPGLLALPAEHFQAELERRFGDHLGWVRPVGPRFSYRLTLQAANRYVDHRLALVGDAAHGMHPVAGQGMNYGLRDVAVLAERLVAAQRLGLDPGAPALLAEYEALRRPDNLLMLAITDALVRLFSNDIAPVALARRLGIGAVERMGPLKRLFMRHAMGTLKLGPEPPRLMRGVPLLEHHHHHH	soluble
MLIKLTGGTVYDPANGIDGQVRNLFIRDGRIVHSLNGATPDQEYDLRGKVVMAGAIDMHTHIGGGKVTIARNLLPEDHRADPEPRRGLMRAGCGHAAPSTLTTGYRYAEMGYTAGFEPAVLPINARQAHMEMADVPLLDVGGYVMLGSDDFFLRLLSAGSDQKLINDYVAWTIRSAKAIGIKVVNPGGISAFKFNQRMLDLDEKHVYYGVTPRQILKSLARAVHELGVPHPLHVHGCNLGVPGNVETTLNTISGIEGLPMHLTHIQFHSYGVEGDRKFSSGAARIAEAINANKNITIDVGQILFGQTVTASGDSMRQHANAGHAHPDKWVCMDIECDAGCGVVPFKYRDKNFVNALQWCIGLETFLLIDDPWRVFLTTDHPNGAPFTTYPHLIRLLMDKSFRNDMLATINPEAAALSTLGSIDREYSLYEIAIMTRAGAARLLGLTDRGHLGAGAAADITVYTDQADKEKMFTRPDYVFKDGELVVRNGEVVKVVWGNLHTVQPEFDNGIEARLRDYFDRYHTMKLDNFVINDWEIEGDGRSKILVHPCHQGTRSLEHHHHHH	not soluble
MGSDKIHHHHHHMEFTSLWQEFARISEVEAIALGGSRATGNYDETSDYDLYIYCSSIPDEATRLTILKSFCSYIEIGNHFWELEDDCTLMSGQDIDILYRDINQIRDELVDVVERCIIQNAYTTCLWHNVLHSKILYDSDDKLKCIVNRFDINYPQKLKQTILSHHMNLLTGHLPSYDKQIIKAVMRKDIVSFNHRVTAFLETYFDLIFALNMLTHPGEKRMIAYAEQNAQSLPNHFQKNIERLIYGTTCHPYDIQDILNDILNELTPLLHDSIG	not soluble
MSTCTLRFKNDWLKIFTCPVPSSDFLSFVGVATIDAPQHAVLSLLYDIESATEWVWKTREMRVLQELADDNEGRVVYQVVSAPWPVSDREIISRSTAYKDPETGEVFIKIESLPDFIPETSNCVRVRKLEGAWNILPLSENSCRVVFRLHIEPAGEIPSWLANIAVIDTPYHTLNNMRDMVKREKYKNPLEHHHHHH	not soluble
MAHHHHHHMPAAVTVHPLVLLSIVDHVTRVGLQTQQQRSPQKQGSAPDAAAASLPAPVFLSTAGLLMGTTRASGPVVTSTCSAESGGRGITTTLCASFEFPLRLQSTDGVAVAVAPSGDATFLQNILRDKTDWPAAQKHREQLSAVMPEMDVVGCYVVCASSRWTSTRHPRGGDDRDGSQLSVGGAVKKAKGEAMAGADHIAAIANCVQQQLRSTSILPSTATGFVLLVVYDKEVTSAAGDTDTAAPNPPHSPAAARLPFDCLYVPATTASDASPTEEVTVGPSDMEWIALANETMMPAYHQSSTTTCSAAVKPGLLRRLCSAAYLTSEGPDSREPANTQTSRMASSQNCRAAEELVGSLRLIMRVLVEMTASTLSPTGTAPDDVELLRTVATCLRNVPVSHPSQPPGEPRAPSELPTEEMLSAILALEVQCALHMRSLSKAQQQLLSSSRSAMTAFHSKACSPKAANPPPPLPSAEGWSTHERDKRSGVNTAVPGHGWV	not soluble
MGSDKIHHHHHHMKCLRESAIVAYAETKVMEKSDRDVWELDAEVLEALLERSGFEKGEIDGLVMAGFGLTAAGESFWAQVTADQLGLELDYCDQVHIGGCSATGSVARAAAAIDAGLCTTVLLLFADTGVAENNRGDRSFRREWADPYGVFGPPDAFGLLTRRYEHQYGLDYEMLGKLAVTQRAHAVLNENACEKLRKPITIDDYLNSRMIADPIRLLDCVMRCDAASGLLMTSRRRAREKGIDKFITPIGYGERTNFQGGENFVDVTRSGHEACGKRALAQAGLALKDVASFHPYDDFIIAIMLQLEAFGFCGRGQGVQFIREMNFSFDGDLPLNTGGGQISAGQAACCSHNLIEAIRQLMGEGGARQVRNTANALVSGIGWINYSRNWGTSSALVLAPNA	not soluble
HGSMEVPVSRAYGCFQEGPEAPISSACREAKRVGGAQAMYDWNAINQTPAGDNHQALVPDGALCGGGKAEFKGFNLARSDWRATSIVPDAKGDYEFVFQATAPHATKYFRLYVTRDGWNPSTPLKWSDLTLFGAYNGNPPLDVGNRYRMTMRLPAGKTGRHIIYSVWKRSDSEEAFYACSDVSFGH	not soluble
GMSEALSDSGLPPVQRVVTGHDAHGRAVFKSEDVTPTRMIPSGDASFLLVWTTATVPADNNDETDGRQREAGLTLDGGSVIRVVDMLPGKESPMHRTNSIDYGIVLEGEIELELDDGAKRTVRQGGIIVQRGTNHLWRNTTDKPCRIAFILIEAPAYLHNGQPLPEDKPDHK	soluble
MSKADPSKGPAPACPGPDPAPRRPTRYVVPPGAVDTHAHVIGLPPTYPFVDARSYTPPAATPESYLAMLDATGMTYGVVVQVSVHGTDNRLMLETLQAHRDRLKGIAVIPLGLPDKELAALKDAGVVGLRLNILYGGGIGFERVGEYAAMAKELGWHLQFLIDAKDLVPLAPQLGGLPVPFIVDHWGHFPVSRGIDDPGFQTLVSLVRDGAWVKLSGAYRNTVAGFPYLDTIPFARLLHETAPDRCVWGSDWPHVATWQHMMNVGELLDLLADWVPDAAARDRVFTDNAYRLYGFTPVQGLEHHHHHH	not soluble
AEPAGRQRPRREPEAMDEQSVESIAEVFRCFICMEKLRDARLCPHCSKLCCFSCIRRWLTEQRAQCPHCRAPLQLRELVNCRWAEEVTQQLDTLQLCSLTKHEENEKDKCENHHEKLSVFCWTCKKCICHQCALWGGMHGGHTFKPLAEIYEQHVTKVNEEVAKLRRRLMELISLVQEVERNVEAVRNAKDERVREIRNAVEMMIARLDTQLKNKLITLMGQKTSLTQETELLESLLQEVEHQLRSCSKSELISKSSEILMMFQQVHRKPMASFVTTPVPPDFTSELVPSYDSATFVLENFSTLRQRADPVYSPPLQVSGLCWRLKVYPDGNGVVRGYYLSVFLELSAGLPETSKYEYRVEMVHQSCNDPTKNIIREFASDFEVGECWGYNRFFRLDLLANEGYLNPQNDTVILRFQVRSPTFFQKSRDQHWYITQLEAAQTSYIQQINNLKERLTIELSRTQKSRDLSPPDNHLSPQNDDALETRAKKSACSDMLLEGGPTTASVREAKEDEEDEEKIQNEDYHHELSDGDLDLDLVYEDEVNQLDGSSSSASSTATSNTEENDIDEETMSGENDVEYNNMELEEGELMEDAAAAGPAGSSHGYVGSSSRISRRTHLCSAATSSLLDIDPLILIHLLDLKDRSSIENLWGLQPRPPASLLQPTASYSRKDKDQRKQQAMWRVPSDLKMLKRLKTQMAEVRCMKTDVKNTLSEIKSSSAASGDMQTSLFSADQAALAACGTENSGRLQDLGMELLAKSSVANCYIRNSTNKKSNSPKPARSSVAGSLSLRRAVDPGENSRSKGDCQTLSEGSPGSSQSGSRHSSPRALIHGSIGDILPKTEDRQCKALDSDAVVVAVFSGLPAVEKRRKMVTLGANAKGGHLEGLQMTDLENNSETGELQPVLPEGASAAPEEGMSSDSDIECDTENEEQEEHTSVGGFHDSFMVMTQPPDEDTHSSFPDGEQIGPEDLSFNTDENSGR	soluble
AHHHHHHGSVERSKVRVLIAKPGLDGHDRGAKVVARALRDAGYEVIYTGIRQTPEQIVEAVIEEDVDVLGISILSGAHMVLIPKILKLLEEKGIKPGEDILVVAGGIIPPDDAEELKKMGVAEVFGPGTPLKTIIEFIDKNVEKLKKFRSST	soluble
